Assay results reported in US20240010684A1, “MASP INHIBITORY COMPOUNDS AND USES THEREOF” (BAYER AKTIENGESELLSCHAFT, priority 2020, published 2024).

Tests used:
[1] = biological target: T1, recombinant human MASP1 (amino acids 297-699, C-terminal His Tag) (human) (UniProt P48740); test: cell-based or functional assay
T1 sequence: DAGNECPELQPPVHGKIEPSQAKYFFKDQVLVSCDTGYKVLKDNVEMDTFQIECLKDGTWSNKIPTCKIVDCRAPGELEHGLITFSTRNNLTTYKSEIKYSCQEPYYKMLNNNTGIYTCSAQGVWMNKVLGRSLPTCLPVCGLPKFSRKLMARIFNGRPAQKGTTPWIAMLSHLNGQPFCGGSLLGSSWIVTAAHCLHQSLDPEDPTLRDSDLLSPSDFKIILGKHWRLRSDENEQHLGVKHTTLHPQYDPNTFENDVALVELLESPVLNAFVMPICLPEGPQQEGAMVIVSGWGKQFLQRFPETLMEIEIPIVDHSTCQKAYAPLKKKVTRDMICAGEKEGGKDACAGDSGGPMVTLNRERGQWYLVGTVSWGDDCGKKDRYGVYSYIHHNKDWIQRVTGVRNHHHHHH

[2] = biological target: recombinant human MASP2 (amino acids 297-686, C-terminal His Tag) (human) (UniProt O00187); test: cell-based or functional assay
recombinant human MASP2 (amino acids 297-686, C-terminal His Tag) (human), sequence (O00187 other isoform, or with tags, fused parts or gaps limits assumed): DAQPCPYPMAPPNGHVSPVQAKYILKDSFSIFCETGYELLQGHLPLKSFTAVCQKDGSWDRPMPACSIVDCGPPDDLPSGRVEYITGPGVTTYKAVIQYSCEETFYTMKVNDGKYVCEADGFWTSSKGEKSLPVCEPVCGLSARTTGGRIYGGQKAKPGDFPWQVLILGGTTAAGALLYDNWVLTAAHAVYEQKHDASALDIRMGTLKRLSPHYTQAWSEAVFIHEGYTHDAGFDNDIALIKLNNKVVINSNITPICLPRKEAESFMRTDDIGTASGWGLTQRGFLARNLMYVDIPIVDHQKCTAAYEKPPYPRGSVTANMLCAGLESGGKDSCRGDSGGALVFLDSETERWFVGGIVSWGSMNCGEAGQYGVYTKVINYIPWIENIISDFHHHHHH

human MASP1 IC50 [1]: 8.2 nM | human MASP2 IC50 [2]: 66 nM
Substance: Example 47: A**GGIC+SRS-((tBu)A)-PPI-((N-Me)C)+-IPd** (peptide)
